Assay results taken from patent US7294701B2, “Antibody fragment capable of modulating multidrug resistance and compositions and kits and methods using same” (Technion Research & Development Foundation Ltd., priority 2003, dated 2007).
Several values for one entry are separate records, joined by “and”; a condition that tells them apart may be missing. Identical values can stand only once. Entries after “also recorded” stand apart in the source; their conditions may differ. Like-named read-outs stand apart in the source and are kept apart here.

Tests used:
[1] = tested on: 2780^ADR cells; test: viability of doxorubicin-exposed cells by [3H]-leucine incorporation; type: cell-based, human; details: A2 scFv 0.2 mg/ml before 5-10 μM doxorubicin
Method: Cells were pre-incubated with A2 scFv at a concentration of 0.2 mg/ml, then exposed to 5-10 μM of doxirubicin and then analyzed for [^3H]Leucine content.

[2] = tested on: drug-sensitive ovarian carcinoma cells 2780; test: immunofluorescence flow-cytometer analysis of cell binding; set-up: species or system human; details: 2780, A2 scFv 50 μg/ml, FIG. 2a
Method: (§1) In another series of experiments, the reactivity and specificity of A2 scFv to Pgp, expressed on the surface of MDR cells, was evaluated. […] The MDR cell lines and the drug-sensitive cell lines used in these experiments are described in Table 2 below.
(§2) Cells growing on six well tissue culture plates were washed twice followed by incubation with soluble purified A2 scFv (50 μg/ml) for 90 minutes on ice. Detection was with anti-Myc (30 μg/ml) and FITC-labeled anti-mouse IgG (1:1000, Jackson). Detection of fluorescent cells was performed on a FACScalibur (Becton Dickinson).

[3] = tested on: drug-sensitive carcinoma cells KB3-1; test: as above; set-up: species or system human; details: KB3-1, A2 scFv 50 μg/ml, FIG. 2c
Method: as §1, §2

[4] = tested on: 2780 cells; test: calcein-AM chromophore efflux assay, drug-sensitive cells; type: cell-based, human; details: 2780, fluorometer, FIG. 4c
[5] = target: T1, biotinylated Pgp-derived peptide (SEQ ID NO:1) (Homo sapiens, UniProt P08183); test: saturation ELISA; details: interpolated, FIG. 1c
T1 construct: made in house; host or cells: chemical synthesis
Text: The binding properties of A2 scFv were further characterized using a saturation ELISA. In this experiment, a biotinylated Pgp-derived peptide (SEQ ID NO:1) was bound to plates precoated with BSA-biotin and exposed to increasing amounts of A2 scFv.

[6] = target: T2, Pgp-derived peptide (SEQ ID NO:1) (Homo sapiens, UniProt P08183); test: competition binding radio-immunoassay with [125I]-labeled A2 scFv; details: competition with [125I]-labeled A2 scFv, interpolated, FIG. 1d; read-out: concentration of cold competitor for 50% binding inhibition (affinity constant)
T2 construct: made in house; host or cells: chemical synthesis
Method: In a competition binding radio-immunoassay the purified A2 scFv (100 μg) was first labeled with [^125I] using the Bolton-Hunter reagent. The [^125I]-labeled A2 scFv antibody was added as a tracer (3-5×10^5 cpm/well) to a flexible microtiter plate, which had been pre-coated with BSA-biotin and the target peptide (SEQ ID NO:1), as described above. A non-labeled (i.e., cold) A2 scFv was then added, as a competitor, to the pre-coated plates at increasing concentrations. Plates were incubated for 1 hr at room temperature, then washed and analyzed by gamma counter.

[7] = tested on: drug-sensitive cells KB3-1; test: immuno-histochemical staining; type: binding, human; details: drug-sensitive KB3-1, A2 scFv 0.2 mg/ml, FIG. 2h
Method: (§3) Drug sensitive cells and MDR cells were grown to 50% confluence on glass slides, pre-coated with 4% gelatin in PBS, fixed with 2% formaldehyde in PBS, blocked with 1% BSA in PBS at room temperature, then followed by 90 min incubation with A2 scFv (0.2 mg/ml) in PBS containing 1% BSA (room temperature). The slides were then covered with HRP-labeled anti-Myc-antibody (1:500, in PBS containing 1% BSA) for 1 hr, washes with water, then covered with peroxidase substrate, (AEC) for 2-3 min. Slides were then washed with water and counter staining was performed with hematoxylin.

[8] = tested on: drug-sensitive cells 2780; test: immuno-histochemical staining; type: binding, human; details: 2780, A2 scFv 0.2 mg/ml, FIG. 2f
Method: as §3

[9] = target: T3, Pgp drug-efflux activity in 2780^ADR cells (Homo sapiens, UniProt P08183)
T3 sequence (P08183 whole entry): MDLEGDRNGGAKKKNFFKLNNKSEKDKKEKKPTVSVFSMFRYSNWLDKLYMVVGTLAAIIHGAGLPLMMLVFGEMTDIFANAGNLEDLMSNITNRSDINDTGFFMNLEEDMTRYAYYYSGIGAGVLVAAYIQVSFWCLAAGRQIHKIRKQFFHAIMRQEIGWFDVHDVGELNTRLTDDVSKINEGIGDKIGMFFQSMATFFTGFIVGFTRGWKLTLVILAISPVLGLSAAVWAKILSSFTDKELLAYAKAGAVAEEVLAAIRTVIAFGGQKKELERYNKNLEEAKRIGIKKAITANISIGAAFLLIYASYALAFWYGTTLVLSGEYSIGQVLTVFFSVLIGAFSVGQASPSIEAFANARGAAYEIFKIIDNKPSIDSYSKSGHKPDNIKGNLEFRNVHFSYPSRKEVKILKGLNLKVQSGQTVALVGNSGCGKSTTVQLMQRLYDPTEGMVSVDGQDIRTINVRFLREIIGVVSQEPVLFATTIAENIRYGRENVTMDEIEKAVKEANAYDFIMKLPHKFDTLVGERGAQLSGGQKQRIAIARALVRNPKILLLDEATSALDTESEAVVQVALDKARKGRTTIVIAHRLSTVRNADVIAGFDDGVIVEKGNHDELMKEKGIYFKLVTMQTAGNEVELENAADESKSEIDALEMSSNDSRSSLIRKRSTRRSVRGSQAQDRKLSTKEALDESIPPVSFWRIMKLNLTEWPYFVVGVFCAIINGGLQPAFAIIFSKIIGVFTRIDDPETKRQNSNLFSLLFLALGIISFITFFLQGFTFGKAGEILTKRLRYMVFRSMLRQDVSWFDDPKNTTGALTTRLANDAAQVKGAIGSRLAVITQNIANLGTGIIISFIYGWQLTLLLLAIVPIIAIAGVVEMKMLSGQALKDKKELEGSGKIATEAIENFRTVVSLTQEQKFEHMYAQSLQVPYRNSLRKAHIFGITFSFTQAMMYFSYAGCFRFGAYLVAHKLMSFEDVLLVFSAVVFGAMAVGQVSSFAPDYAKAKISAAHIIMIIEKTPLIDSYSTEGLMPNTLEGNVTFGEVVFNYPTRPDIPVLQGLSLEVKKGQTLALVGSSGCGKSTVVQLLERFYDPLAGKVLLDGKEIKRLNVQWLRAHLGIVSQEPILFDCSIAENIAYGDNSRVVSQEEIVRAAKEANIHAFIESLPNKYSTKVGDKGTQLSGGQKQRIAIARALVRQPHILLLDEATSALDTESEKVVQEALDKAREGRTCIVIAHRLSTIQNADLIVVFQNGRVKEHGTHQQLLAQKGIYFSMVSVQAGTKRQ

[10] = tested on: KB3-1 cells; test: calcein-AM chromophore efflux assay, drug-sensitive cells; type: cell-based, human; details: KB3-1, fluorometer, FIG. 4d
[11] = target: T4, Pgp on MDR ovarian carcinoma cells 2780^ADR (Homo sapiens, UniProt P08183); test: immuno-histochemical staining; type: binding; details: A2 scFv 0.2 mg/ml, FIG. 2e
T4 construct: MDR and Pgp-overexpressing ovarian carcinoma cells 2780^ADR; endogenous in cells; host or cells: 2780^ADR (drug-selected human ovarian carcinoma)
T4 sequence (P08183 whole entry): as above
Method: as §3

[12] = target: T5, Pgp on MDR carcinoma cells KBV-1 (Homo sapiens, UniProt P08183); test: immuno-histochemical staining; type: binding; details: MDR KBV-1, A2 scFv 0.2 mg/ml, FIG. 2g
T5 construct: MDR and Pgp-overexpressing human carcinoma cells KBV-1; endogenous in cells; host or cells: KBV-1 (KB-V1; drug-selected human epidermoid carcinoma, derived from KB3-1)
T5 sequence (P08183 whole entry): as above
Method: as §3

[13] = tested on: non-target MRP1 control peptide; test: ELISA binding specificity, non-target control peptide; details: FIG. 1b
Method: (§4) The binding specificity of the purified A2 scFv antibody was determined via ELISA. A biotinylated target peptide having the amino acid sequence of SEQ ID NO:1, or a non-target MRP1 control peptide (provided at 10 μg in 100 μl) were each immobilized onto a flexible microtiter plate using BSA-biotin-streptavidin. A purified A2 scFv was then added, at different concentrations, to the peptide-coated plate and was detected with an anti Myc tag-HRP conjugate antibody.

[14] = target: T3, Pgp drug-efflux activity in 2780^ADR cells; test: calcein-AM chromophore efflux assay; details: antibody given before calcein, FIGS. 3c, 3e
[15] = target: streptavidin (Streptomyces avidinii, UniProt P22629); test: ELISA binding specificity, streptavidin; details: FIG. 1b
Method: as §4

[16] = target: T4, Pgp on MDR ovarian carcinoma cells 2780^ADR; test: immunofluorescence flow-cytometer analysis of cell binding; details: A2 scFv 50 μg/ml, FIG. 2b
Method: as §1, §2

[17] = target: T6, Pgp on MDR epidermoid carcinoma cells KBV-1 (Homo sapiens, UniProt P08183); test: as above; details: KBV-1, A2 scFv 50 μg/ml, FIG. 2d
T6 construct: MDR and Pgp-overexpressing human carcinoma cells KBV-1; endogenous in cells; host or cells: KBV-1 (KB-V1; drug-selected human epidermoid carcinoma, derived from KB3-1)
Method: as §1, §2

[18] = tested on: A8 cells; test: calcein-AM chromophore efflux assay, drug-sensitive cells; type: cell-based, rodent (CHO); details: A8, fluorometer, FIG. 4e
[19] = target: T7, Pgp drug-efflux activity in EMT^R1 cells (Cricetulus griseus, UniProt P21448); test: calcein-AM chromophore efflux assay; type: cell-based, rodent (CHO); details: EMT^R1, fluorometer, FIG. 4a
T7 construct: a rodent (CHO) MDR cell line EMT^R1; endogenous in cells; host or cells: EMT^R1 (CHO, parental line A8)
T7 sequence (P21448 whole entry): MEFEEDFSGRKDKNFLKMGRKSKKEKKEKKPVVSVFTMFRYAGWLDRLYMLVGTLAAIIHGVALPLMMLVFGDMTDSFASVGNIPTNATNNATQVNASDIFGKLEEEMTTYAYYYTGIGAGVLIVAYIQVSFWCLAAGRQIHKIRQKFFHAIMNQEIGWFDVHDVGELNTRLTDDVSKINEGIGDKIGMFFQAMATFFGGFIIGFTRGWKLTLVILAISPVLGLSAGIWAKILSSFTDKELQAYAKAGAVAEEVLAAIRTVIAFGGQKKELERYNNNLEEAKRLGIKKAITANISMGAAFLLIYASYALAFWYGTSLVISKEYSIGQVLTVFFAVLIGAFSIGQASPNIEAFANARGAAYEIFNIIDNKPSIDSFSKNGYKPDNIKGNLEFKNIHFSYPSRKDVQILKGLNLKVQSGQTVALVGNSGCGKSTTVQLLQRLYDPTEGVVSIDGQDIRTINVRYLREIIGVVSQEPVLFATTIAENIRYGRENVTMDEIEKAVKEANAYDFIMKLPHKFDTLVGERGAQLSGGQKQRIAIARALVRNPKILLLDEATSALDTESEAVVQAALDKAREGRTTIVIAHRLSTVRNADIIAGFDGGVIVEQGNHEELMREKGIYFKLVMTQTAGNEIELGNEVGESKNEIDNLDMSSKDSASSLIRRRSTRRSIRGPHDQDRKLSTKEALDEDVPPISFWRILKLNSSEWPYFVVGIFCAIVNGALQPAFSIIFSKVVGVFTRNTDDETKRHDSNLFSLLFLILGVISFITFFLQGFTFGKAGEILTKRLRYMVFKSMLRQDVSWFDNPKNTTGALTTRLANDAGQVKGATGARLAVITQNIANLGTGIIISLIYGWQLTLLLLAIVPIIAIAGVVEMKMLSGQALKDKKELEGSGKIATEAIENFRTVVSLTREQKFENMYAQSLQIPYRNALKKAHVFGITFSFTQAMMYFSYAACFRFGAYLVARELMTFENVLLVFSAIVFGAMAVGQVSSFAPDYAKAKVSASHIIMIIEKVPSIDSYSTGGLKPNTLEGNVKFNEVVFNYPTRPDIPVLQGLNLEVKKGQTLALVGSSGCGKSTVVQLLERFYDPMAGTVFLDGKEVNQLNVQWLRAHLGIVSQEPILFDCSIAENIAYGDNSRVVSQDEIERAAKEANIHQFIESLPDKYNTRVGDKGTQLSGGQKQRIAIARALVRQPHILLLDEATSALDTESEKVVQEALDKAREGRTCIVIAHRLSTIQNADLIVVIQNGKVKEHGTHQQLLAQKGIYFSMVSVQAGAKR

B1: A2 scFv: novel anti-Pgp single-chain Fv, about 30 kDa, encoded by SEQ ID NO:2, directed to first extracellular loop peptide SEQ ID NO:1 (protein)
chain: QVQLQQSGPDLVKPGASVKISCKASGYSFTGYYMHWVKQSHGKSLEWIGRANPNNGGTSYNQKFKGKAILTVDKSSSTAYMELRSLTSEDSAVYYCARWDGAYWGQGTLVTVSSGGGGSGGGGSGGGGSDVVMTQTPLSLPVSLGDQASISCRSSQSIVHSNGNTYLEWYLQKPGQSPKLLIYKVSNRFSGVPDRFSGSGSGTDFTLKISRVEAEDLGVYYCFQGSHVPFTFGSGTKLELK
modifications: A2 single chain Fv coding sequence
viability of cells exposed to doxorubicin [1]: effectively reduced the viability of cells; also recorded: substantial loss of viability of cells
reactivity with cells (flow cytometer) [2]: no reactivity; also recorded: no effect on fluorescent intensity
reactivity with cells (flow cytometer) [3]: no reactivity; also recorded: no effect on fluorescent intensity
effect on calcein uptake in drug-sensitive cells [4]: did not affect the level of calcein accumulation; also recorded: no effect
Kd ([5]; listed as A2, read-out: concentration required for 50% of maximal binding (affinity constant)): ~150 nM
Kd ([5]; read-out: concentration required for 50% of maximal binding (affinity constant)): 150 nM and ~150 nM
Kd [6]: 130 nM and ~130 nM
immuno-histochemical staining of cells [7]: did not stain; also recorded: no antibody-cell reaction
immuno-histochemical staining of cells [8]: did not stain; also recorded: no antibody-cell reaction
IC50 [9]: 2600 nM
concentration of maximal inhibitory activity [9]: 100 µg/mL
effect on calcein uptake in drug-sensitive cells [10]: did not affect the level of calcein accumulation; also recorded: no effect
immuno-histochemical staining of cells [11]: intense in situ staining; also recorded: positive antibody-cell reaction
immuno-histochemical staining of cells [12]: intense in situ staining; also recorded: positive antibody-cell reaction
binding to biotinylated non-target peptide [13]: did not react
effect on calcein uptake / drug efflux activity [14]: substantial increase in fluorescence intensity; also recorded: substantially inhibited drug efflux activity; also recorded: positive dose-response effect
binding to streptavidin [15]: did not react
increase in fluorescent intensity [16]: 10 fold
reactivity with cells (flow cytometer) [16]: strong reactivity
reactivity with cells (flow cytometer) [17]: strong reactivity; also recorded: substantial increase in fluorescent intensity
effect on calcein uptake in drug-sensitive cells [18]: did not affect the level of calcein accumulation; also recorded: no effect
effect on calcein uptake [19]: substantial increases in calcein accumulation; also recorded: substantially higher levels of fluorescence
